A word on the Kd: it is the constant that tells how readily two partners part at equilibrium. High values mean a looser complex, low ones a tighter complex.

The target of assay [1] is T1, Biotinylated Human ACE2, His, Avitag protein (ACROBiosystems, AC2-H82E6) (human, UniProt Q9BYF1 18-740).
T1 construct: also called biotinylated ACE2; ACE2 protein; not shown: His tag and Avitag
The assay can be described thus: SPR single cycle kinetics, ACE2 captured on CAP chip, peptide analyte; geometric mean; † high bulk contribution observed, treat with caution. Here is the method:
(§1) Binding of bicyclic peptides of the invention to Biotinylated Human ACE2, His, Avitag™ protein (ACROBiosystems, AC2-H82E6) was assessed by a SCK analysis. Experiments were performed at 25° C. on a Biacore T200 (Cytiva) running Biacore T200 Control software V2.0.1 and Evaluation software V3.0 (Cytiva). HBS-EP+ (Cytiva) was used as running buffer as well as for ligand and analyte dilutions. Biotin CAPture reagent was loaded onto a Series S Sensor CAP Chip (Cytiva) followed by loading of the ACE2 protein at a flow rate of 2 μl/min. The surface was then allowed to stabilise.
(§2) SCK data was obtained using bicyclic peptides of the invention as analytes injected at a flow rate of 30 μl/min to minimise any potential mass transfer effects. […] The association phases were monitored for 100 seconds for each of the four injections of increasing concentrations of analyte and a single dissociation phase was measured for 400 seconds following the last injection of analyte. Regeneration of the sensor chip surface was conducted using the CAP Chip standard regeneration buffer (Cytiva).
(§3) The signal from the reference channel Fc1 (no ACE2 captured) was subtracted from that of Fc2, Fc3 and Fc4 to correct for bulk effect and differences in non-specific binding to a reference surface. The signal from each blank run (Fc2-ACE2 captured but no antigen) was subtracted to correct for differences in surface stability. […]

Assay [2] has as its target T1, Biotinylated Human ACE2, His, Avitag …. The assay can be described thus: SPR single cycle kinetics, ACE2 captured on CAP chip, peptide analyte; geometric mean; * Rmax set to 10. As to the method: as §1, §2
(§4) The signal from the reference channel Fc1 (no ACE2 captured) was subtracted from that of Fc2, Fc3 and Fc4 to correct for bulk effect and differences in non-specific binding to a reference surface. The signal from each blank run (Fc2-ACE2 captured but no antigen) was subtracted to correct for differences in surface stability. The double referenced sensorgrams were fitted with the Langmuir (1:1) binding model (Equation 1a below) where the closeness of fit of the data to the model is evaluated using the Chi square value which describes the deviation between the experimental and fitted (observed and expected) curves (Equation 1b below).

The target is the same in assay [3]. Description: SPR multiple cycle kinetics, ACE2 captured on CAP chip, peptide analyte 6.25-100 nM; geometric mean. As to the method:
(§5) Binding of bicyclic peptides of the invention to Biotinylated Human ACE2, His, Avitag™ protein (ACROBiosystems, AC2-H82E6) was assessed by a MCK analysis. Experiments were performed at 25° C. on a Biacore T200 (Cytiva) running Biacore T200 Control software V2.0.1 and Evaluation software V3.0 (Cytiva). HBS-EP+(Cytiva) was used as running buffer as well as for ligand and analyte dilutions. Biotin CAPture reagent was loaded onto a Series S Sensor CAP Chip (Cytiva) followed by loading of biotinylated ACE2 at a flow rate of 2 μl/min. The surface was then allowed to stabilise.
MCK data was obtained using bicyclic peptides of the invention as analytes injected at a flow rate of 30 μl/min to minimise any potential mass transfer effects. A five point, two-fold dilution range from 6.25 nM to 100 nM of analyte was prepared in running buffer. For each concentration, the association phases were monitored for 250 seconds and the dissociation phase was measured for 450 seconds. Regeneration of the sensor chip surface was conducted between cycles using the CAP Chip standard regeneration buffer (Cytiva). Multiple repeats of a blank and of Bicycle were programmed into the kinetic run in order to check the stability of both the surface and analyte over the kinetic cycles.
as §4, with “above)” for “below)”, “1 b above).” for “1b below).”

Assay [4] shares this target. Description: SPR multiple cycle kinetics, biotinylated ACE2 captured on CAP chip, peptide as analyte. As to the method:
as §5
MCK data was obtained using bicyclic peptides of the invention as analytes injected at a flow rate of 30 μl/min to minimise any potential mass transfer effects. […] For each concentration, the association phases were monitored for 250 seconds and the dissociation phase was measured for 450 seconds. […]
The signal from the reference channel Fc1 (no ACE2 captured) was subtracted from that of Fc2, Fc3 and Fc4 to correct for bulk effect and differences in non-specific binding to a reference surface. […] The double referenced sensorgrams were fitted with the Langmuir (1:1) binding model (Equation 1a above) where the closeness of fit of the data to the model is evaluated using the Chi square value which describes the deviation between the experimental and fitted (observed and expected) curves (Equation 1 b above).

The target is the same in assay [5]. The assay can be described thus: SPR single cycle kinetics, biotinylated ACE2 captured on CAP chip, peptide as analyte. As to the method:
as §1, §2, §3

Numbered stars: 1 amine (or outer) side, 2 acyl side, 3 side chain; on linkers, the order of the positions; unused ones are H or OH. Bridge positions count the residues as written; N and C are the ends. Square brackets hold non-standard residues; d marks the D form. Ends that are not written are not given here. TATA = O=C(CC[*:1])N1CN(C(=O)CC[*:2])CN(C(=O)CC[*:3])C1; Phe(4-Cl) = N[C@@H](Cc1ccc(Cl)cc1)C(=O)O; Hyp = O=C(O)[C@@H]1C[C@@H](O)CN1; hArg = N=C(N)NCCCC[C@H](N)C(=O)O; PYA = propargyl-acid

T1 sequence (Q9BYF1 18-740 limits assumed): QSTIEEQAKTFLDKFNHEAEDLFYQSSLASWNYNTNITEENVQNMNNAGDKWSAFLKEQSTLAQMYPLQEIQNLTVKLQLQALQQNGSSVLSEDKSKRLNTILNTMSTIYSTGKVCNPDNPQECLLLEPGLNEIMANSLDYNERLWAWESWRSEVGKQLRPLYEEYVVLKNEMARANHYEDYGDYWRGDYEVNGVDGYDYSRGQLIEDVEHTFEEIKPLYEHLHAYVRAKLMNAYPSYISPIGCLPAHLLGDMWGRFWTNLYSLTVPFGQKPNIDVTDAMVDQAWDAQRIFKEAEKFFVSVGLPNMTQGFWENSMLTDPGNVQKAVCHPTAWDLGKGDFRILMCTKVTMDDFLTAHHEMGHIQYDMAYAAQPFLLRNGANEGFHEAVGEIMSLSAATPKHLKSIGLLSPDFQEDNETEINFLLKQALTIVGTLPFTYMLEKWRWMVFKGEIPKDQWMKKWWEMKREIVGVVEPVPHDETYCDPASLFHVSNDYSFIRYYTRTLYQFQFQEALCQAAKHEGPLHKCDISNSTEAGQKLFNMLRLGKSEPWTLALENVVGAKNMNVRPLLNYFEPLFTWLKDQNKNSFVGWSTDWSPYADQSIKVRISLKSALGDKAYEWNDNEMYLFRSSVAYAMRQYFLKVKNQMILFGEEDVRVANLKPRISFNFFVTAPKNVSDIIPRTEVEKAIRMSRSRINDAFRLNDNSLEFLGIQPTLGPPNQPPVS

B1: BCY17344 (peptide)
peptide: ACNAVLCSWARANSFCAK(PYA)
modifications: linker 2-7-16 via TATA
notes: bicyclic peptide, TATA scaffold
In assay [1], B1 registered a Kd of 0.0032 µM.

B2: BCY18551 (peptide)
peptide: Ac-CNTVLCGWA[hArg]ANSLCK(PYA)
modifications: linker 1-6-15 via TATA
notes: as for B1
Consider B2, for which the values for the Kd in assay [2] and in assay [3] were 0.0154 µM and 0.0195 µM, respectively.

B3: BCY19024 (peptide)
peptide: Ac-CNAVLCSWA[hArg][Hyp]NSFC
modifications: linker 1-6-15 via TATA
notes: as for B1
With B3, the binding result in assay [4] is listed as “no binding”.

B4: BCY17340 (peptide)
peptide: ACNAVLCSWARANS[Phe(4-Cl)]CA
modifications: linker 2-7-16 via TATA
notes: as for B1
Molecule B4 registered a Kd in assay [1] of 0.0169 µM.

B5: BCY18259 (peptide)
peptide: Ac-CNAVLCSWA[hArg]ANSFC
modifications: linker 1-6-15 via TATA
notes: as for B1
B5: the values for the Kd in assay [2] and in assay [3] were 0.023 µM and 0.013 µM, respectively.

B6: BCY18659 (peptide)
peptide: Ac-CNDVLCSWA[hArg]ANSFC
modifications: linker 1-6-15 via TATA
notes: as for B1
With B6, the binding result in assay [5] is “no binding”.

B7: BCY18783 (peptide)
peptide: Ac-CNEVLCSWA[hArg]ANSFC
modifications: linker 1-6-15 via TATA
notes: as for B1
Take B7: the binding result in assay [5] is “no binding”.

B8: BCY18550 (peptide)
peptide: Ac-CNTVLCGWARANSLCK(PYA)
modifications: linker 1-6-15 via TATA
notes: as for B1
With B8, the Kd is 0.0097 µM in assay [2] and 0.0156 µM in assay [3].

B9: BCY18549 (peptide)
peptide: Ac-CNTVLCGWA[hArg]ANSLCAK(PYA)
modifications: linker 1-6-15 via TATA
notes: as for B1
For the molecule B9, the dissociation constant (Kd) in assay [2] turned out to be 0.0639 µM; in assay [3] it was 0.0429 µM.

These data come from patent publication US20230183291A1 (Bicycle, published 2023).
